Reference: the RNAGym collection of RNA variant scans (doi:10.1101/gr.219683.116)

B1: mRNA-splicing (parent)
chain: AGUUGCUGCUGGGAGCUCCAGCACAGUGAAAUGGACAGAAGGGCAGAGCAA

Variants of: B1
Assay: exon inclusion enrichment index; higher = more inclusion; WT1 exon 5 minigene, HEK293

Q: Which “exon inclusion enrichment index” value does the source give for G5C C6G U7C U10C A20U G21U here?
A: 2.35

Q: Which “exon inclusion enrichment index” value does the source give for G5A C6G U7G C9A A39U A40U here?
A: 0.00155

Q: For C6A U7C C9A U10C A47C, which “exon inclusion enrichment index” value is on record?
A: 3.27

Q: With G21A as the variant, how does the “exon inclusion enrichment index” value read?
A: 1.75

Q: For G2U G5A C6U U7A G8U C9A, which “exon inclusion enrichment index” value is on record?
A: 0.188

Q: With C6A U7C C9A U10C U27A G28C as the variant, how does the “exon inclusion enrichment index” value read?
A: 3.18

Q: With G5A U7C G8A U10C G34U A35G as the variant, how does the “exon inclusion enrichment index” value read?
A: 0.753

Q: With G5C C6G U7C U10C A25U as the variant, how does the “exon inclusion enrichment index” value read?
A: 3.84

Q: For C6A U7C C9A U10C G43U C44U, which “exon inclusion enrichment index” value is on record?
A: 1.21

Q: With C6A U7C C9A U10A G11C as the variant, how does the “exon inclusion enrichment index” value read?
A: 2.78

Q: For G5C C6U G8C C9U U10C U27A G28A, which “exon inclusion enrichment index” value is on record?
A: 2.06

Q: For G5C C6U G8C C9U U10C A35U C36A, which “exon inclusion enrichment index” value is on record?
A: 0.00287

Q: Which “exon inclusion enrichment index” value does the source give for G5A C6G U7C G8A U10A here?
A: 0.00406

Q: Which “exon inclusion enrichment index” value does the source give for G5A U7C G8A U10C G42C G43U here?
A: 3.18

Q: For G5C C6G U7C U10C G42U G43C, which “exon inclusion enrichment index” value is on record?
A: 2.28

Q: With G5A C6U U7A G8U C9A G46U as the variant, how does the “exon inclusion enrichment index” value read?
A: 0.0405

Q: With G5A U7C G8A U10C G43A C44A as the variant, how does the “exon inclusion enrichment index” value read?
A: 3.99

Q: For C6A U7A C9A U10A C19A A20G, which “exon inclusion enrichment index” value is on record?
A: 0.0532

Q: For C6A U7C C9A U10C G33C, which “exon inclusion enrichment index” value is on record?
A: 3.45

Q: For U4A G5U C6A U7C G8A U10A, which “exon inclusion enrichment index” value is on record?
A: 0.0592

Q: With G5C C6U G8C C9U U10C A14C as the variant, how does the “exon inclusion enrichment index” value read?
A: 1.3

Q: Which “exon inclusion enrichment index” value does the source give for C36A here?
A: 0.0939

Q: Which “exon inclusion enrichment index” value does the source give for G2U U3C G5U G8U C9U here?
A: 0.965

Q: With G5A U7C G8A U10C G11C G12A as the variant, how does the “exon inclusion enrichment index” value read?
A: 0.351

Q: With G5A U7C G8A U10C G11C G12U as the variant, how does the “exon inclusion enrichment index” value read?
A: 0.353

Q: For G5C C6A U7C G8A U10A A47G G48C, which “exon inclusion enrichment index” value is on record?
A: 0.0266

Q: Which “exon inclusion enrichment index” value does the source give for C19U A20C here?
A: 1.96

Q: For G5U C6G U7C G8U C9U, which “exon inclusion enrichment index” value is on record?
A: 0.349

Q: With U3G U4G G5U G8U C9U as the variant, how does the “exon inclusion enrichment index” value read?
A: 0.0141

Q: Which “exon inclusion enrichment index” value does the source give for G5A C6G U7G C9A G33U G34A here?
A: 0.000839

Q: For G5C C6U G8C C9U U10G G11C, which “exon inclusion enrichment index” value is on record?
A: 2.13

Q: Which “exon inclusion enrichment index” value does the source give for C6A U7C C9A U10C G12C G13U here?
A: 0.77

Q: For G5A C6G U7G C9A G38U A39U, which “exon inclusion enrichment index” value is on record?
A: 0.000926

Q: With C6A U7C C9A U10C G41C G42U as the variant, how does the “exon inclusion enrichment index” value read?
A: 3.52

Q: With U4A G5U G8U C9U as the variant, how does the “exon inclusion enrichment index” value read?
A: 0.252

Q: Which “exon inclusion enrichment index” value does the source give for C6A U7A C9A U10A C18A C19U here?
A: 0.0166

Q: Which “exon inclusion enrichment index” value does the source give for G5C C6A U7C G8A U10A A40G G41U here?
A: 0.0884

Q: With G5A C6G U7G C9A G46C A47C as the variant, how does the “exon inclusion enrichment index” value read?
A: 0.00161

Q: Which “exon inclusion enrichment index” value does the source give for G5A C6G U7G C9A G46C A47U here?
A: 0.00364

Q: For G5A C6G U7C G8A C9A, which “exon inclusion enrichment index” value is on record?
A: 0.0448

Q: With C6A U7A C9A U10A A30G A31G as the variant, how does the “exon inclusion enrichment index” value read?
A: 0.168

Q: For C6A U7C C9A U10C G28C A29U, which “exon inclusion enrichment index” value is on record?
A: 2.34

Q: For G5A C6G U7G C9A G33C G34A, which “exon inclusion enrichment index” value is on record?
A: 0.000739

Q: For G5C C6A U7C G8A U10A G41C, which “exon inclusion enrichment index” value is on record?
A: 0.467

Q: Which “exon inclusion enrichment index” value does the source give for G5A C6U U7A G8U C9A A40C G41U here?
A: 0.0189

Q: With G5A U7C G8A U10C C44G as the variant, how does the “exon inclusion enrichment index” value read?
A: 3.26

Q: With G5U G8U C9U G11C as the variant, how does the “exon inclusion enrichment index” value read?
A: 0.297

Q: Which “exon inclusion enrichment index” value does the source give for G5A G8U C9U here?
A: 0.166

Q: With G5A C6A U7A G8U C9A as the variant, how does the “exon inclusion enrichment index” value read?
A: 0.0639

Q: With G5C C6U G8C C9U U10C G33C G34A as the variant, how does the “exon inclusion enrichment index” value read?
A: 1.24

Q: For G5C C6A U7C G8A U10A G38A A39U, which “exon inclusion enrichment index” value is on record?
A: 0.0079

Q: For G5A U7C G8A C9U, which “exon inclusion enrichment index” value is on record?
A: 0.959

Q: Which “exon inclusion enrichment index” value does the source give for G5C C6A U7C G8A U10A A39U A40G here?
A: 0.0214

Q: Which “exon inclusion enrichment index” value does the source give for G5C C6G U7C U10C A35C C36A here?
A: 2.13

Q: For G2C, which “exon inclusion enrichment index” value is on record?
A: 0.141

Q: With G2A as the variant, how does the “exon inclusion enrichment index” value read?
A: 0.419

Q: Which “exon inclusion enrichment index” value does the source give for C6A U7A C9A U10A A25C G26C here?
A: 1.25

Q: With G5A U7C G8A U10C A20C G21U as the variant, how does the “exon inclusion enrichment index” value read?
A: 1

Q: With A35C C36A as the variant, how does the “exon inclusion enrichment index” value read?
A: 0.0616

Q: Which “exon inclusion enrichment index” value does the source give for G5C C6A U7C G8A U10A A23G C24G here?
A: 0.559

Q: With C44A as the variant, how does the “exon inclusion enrichment index” value read?
A: 0.507

Q: With G5C C6U G8C C9U U10C A31G U32A as the variant, how does the “exon inclusion enrichment index” value read?
A: 3.83

Q: Which “exon inclusion enrichment index” value does the source give for G5C C6G U7C U10C U17A C18G here?
A: 4.2

Q: Which “exon inclusion enrichment index” value does the source give for C6A U7A C9A U10A A30C A31G here?
A: 1.45

Q: With C19G A20C as the variant, how does the “exon inclusion enrichment index” value read?
A: 2.84

Q: For G5U G8U C9U U10C G11A, which “exon inclusion enrichment index” value is on record?
A: 0.133

Q: For G5U G8U C9U U10C G11C, which “exon inclusion enrichment index” value is on record?
A: 0.932

Q: With G5A U7C G8A U10C C24U A25U as the variant, how does the “exon inclusion enrichment index” value read?
A: 2.36

Q: For G5U G8U C9U U32C G33A, which “exon inclusion enrichment index” value is on record?
A: 0.0483

Q: With G5C C6U G8C C9U U10C A39G A40U as the variant, how does the “exon inclusion enrichment index” value read?
A: 0.232

Q: Which “exon inclusion enrichment index” value does the source give for G5U G8U C9U G15C C16U here?
A: 0.0902

Q: Which “exon inclusion enrichment index” value does the source give for G5A C6G U7G C9A A47U G48U here?
A: 0.000738

Q: Which “exon inclusion enrichment index” value does the source give for G5A C6U U7A G8U C9A U10C G11A here?
A: 0.0351

Q: Which “exon inclusion enrichment index” value does the source give for C6A U7A C9A U10A C22U here?
A: 0.414

Q: For G5U G8U C9U G28U, which “exon inclusion enrichment index” value is on record?
A: 0.0111

Q: For A47C G48C, which “exon inclusion enrichment index” value is on record?
A: 0.171

Q: For G5C C6G U7C U10C G33U, which “exon inclusion enrichment index” value is on record?
A: 1.79

Q: For G34U, which “exon inclusion enrichment index” value is on record?
A: 0.0244

Q: For C6A U7C C9A U10C A31G U32G, which “exon inclusion enrichment index” value is on record?
A: 2.7

Q: Which “exon inclusion enrichment index” value does the source give for G5A U7C G8A U10C A23G C24G here?
A: 3.83

Q: Which “exon inclusion enrichment index” value does the source give for G5C C6U G8C C9U U10C C44G A45G here?
A: 0.398

Q: With U10G as the variant, how does the “exon inclusion enrichment index” value read?
A: 1.82

Q: With G5C C6U G8C C9U U10C U17G C18G as the variant, how does the “exon inclusion enrichment index” value read?
A: 1.96

Q: For G5C C6A U7C G8A U10A A47C G48A, which “exon inclusion enrichment index” value is on record?
A: 0.0538
